Where no end group is shown, it is not given here.
Experiments:
fibrin = fibrin (Homo sapiens, UniProt P02675+P02679); details: cited from earlier work
fibrinogen [1] = molecular target: T1, fibrinogen (Homo sapiens, UniProt P02675+P02679); assay: ELISA specificity assay: soluble Gxxx tetrapeptides competing with immobilized GPRP-FnIII9-10-C; type: binding; details: tetrapeptide in 10^2- to 10^4-fold molar excess; one-hour pre-incubation
T1 sequence (P02679 27-437 isoform P02679-2 limits assumed): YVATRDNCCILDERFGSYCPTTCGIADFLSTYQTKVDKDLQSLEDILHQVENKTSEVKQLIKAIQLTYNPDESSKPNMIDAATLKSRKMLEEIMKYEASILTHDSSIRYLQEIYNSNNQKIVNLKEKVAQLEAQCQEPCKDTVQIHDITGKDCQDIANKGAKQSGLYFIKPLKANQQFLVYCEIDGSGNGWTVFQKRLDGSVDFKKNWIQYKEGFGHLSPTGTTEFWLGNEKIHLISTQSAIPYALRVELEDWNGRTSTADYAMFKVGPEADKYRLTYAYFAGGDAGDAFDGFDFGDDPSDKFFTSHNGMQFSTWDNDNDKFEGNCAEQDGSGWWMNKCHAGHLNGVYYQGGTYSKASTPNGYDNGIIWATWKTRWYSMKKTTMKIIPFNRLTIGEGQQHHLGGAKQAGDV
T1 sequence (P02675 31-491): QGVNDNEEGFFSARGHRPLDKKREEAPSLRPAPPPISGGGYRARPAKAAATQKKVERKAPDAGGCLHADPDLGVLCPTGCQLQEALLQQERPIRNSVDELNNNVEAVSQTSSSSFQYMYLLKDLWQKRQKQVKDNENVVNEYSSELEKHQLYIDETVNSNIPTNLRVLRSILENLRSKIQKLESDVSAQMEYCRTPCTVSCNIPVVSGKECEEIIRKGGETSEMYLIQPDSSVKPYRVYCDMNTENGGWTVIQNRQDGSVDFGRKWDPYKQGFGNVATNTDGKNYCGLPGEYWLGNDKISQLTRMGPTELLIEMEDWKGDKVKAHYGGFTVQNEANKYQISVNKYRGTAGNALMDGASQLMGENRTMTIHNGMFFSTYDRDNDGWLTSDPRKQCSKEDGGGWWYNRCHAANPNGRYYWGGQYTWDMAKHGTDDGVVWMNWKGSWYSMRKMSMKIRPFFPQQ
T1 sequence (P02671 20-629 partner limits assumed): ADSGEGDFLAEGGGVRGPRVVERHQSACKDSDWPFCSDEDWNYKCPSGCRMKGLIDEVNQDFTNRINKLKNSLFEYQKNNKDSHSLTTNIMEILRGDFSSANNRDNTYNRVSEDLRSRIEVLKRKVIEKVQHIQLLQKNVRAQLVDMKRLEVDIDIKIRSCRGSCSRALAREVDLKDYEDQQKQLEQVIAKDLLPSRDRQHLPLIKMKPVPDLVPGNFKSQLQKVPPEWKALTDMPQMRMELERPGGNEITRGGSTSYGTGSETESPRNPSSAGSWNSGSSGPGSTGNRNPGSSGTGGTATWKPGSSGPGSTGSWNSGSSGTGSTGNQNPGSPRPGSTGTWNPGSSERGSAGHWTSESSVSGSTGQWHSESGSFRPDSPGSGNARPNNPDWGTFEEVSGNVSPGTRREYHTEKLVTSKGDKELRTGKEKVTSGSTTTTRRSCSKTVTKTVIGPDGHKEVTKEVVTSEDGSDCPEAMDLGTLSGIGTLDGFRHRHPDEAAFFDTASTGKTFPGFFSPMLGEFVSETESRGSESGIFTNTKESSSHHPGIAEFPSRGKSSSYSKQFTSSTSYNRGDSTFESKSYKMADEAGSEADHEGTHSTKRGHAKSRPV
Procedure: A modified ELISA technique was used to establish the affinity of fibrinogen for the various Gxxx-FnIII9-10-C (SEQ ID NO:20) proteins covalently immobilized on maleimide-activated plates via their C-terminal cysteines. Sulfhydryl-containing proteins/peptides were added to pre-blocked maleimide-activated 96-well plates (Pierce, Thermo Scientific, Rockford, Ill.) at 10 μg/mL in conjugation buffer (CB) comprising 150 mM NaCl, 100 mM phosphate, 10 mM EDTA, pH 7.2, with attachment occurring via maleimide-sulfhydryl (thioether) linkages. TCEP (1 mM) was added to maintain sulfhydryl groups in the reduced form. Following, unreacted maleimide groups were quenched with 20 μg/mL cysteine in CB. Human fibrinogen (25 μg/mL) was incubated with the substrates and unbound protein removed by washing. Bound fibrinogen was detected using HRP-conjugated goat anti-fibrinogen antibody (MP Biomedicals #55239) and 1-Step™ Ultra TMB-ELISA (Pierce). The TMB reaction was quenched with 1 M H2SO4 before measuring the Abs450 nm using the SPECTRAMAX® M2 (Molecular Devices, Sunnyvale, Calif.). All intervening wash steps were conducted using washing buffer (WB) comprising 150 mM NaCl, 100 mM phosphate, 0.05% Tween-20, pH 7.2; all binding steps were conducted using binding buffer (BB) comprising PBS+1% BSA. For basic affinity assays, the concentration of the fusion proteins was varied. For specificity assays, varying concentrations of Gxxx (SEQ ID NO:20) tetrapeptides (Genscript, Piscataway, N.J.) were added to the fibrinogen solution during incubation with the covalently immobilized proteins.
The tetrapeptides GPRV (SEQ ID NO:2) and GHRP (SEQ ID NO:3) are also known to bind fibrinogen via knob:pocket interactions, albeit with reduced affinities (Laudano A P, et al. Biochemistry 1980, 19(5):1013-1019).

fibrinogen [2] = molecular target: T2, fibrinogen (Homo sapiens, UniProt P02675+P02679); assay: Turbidity and percent clottability with PEGylated knob peptides; type: biochemical; details: 1:1 molar ratio; for percentage of clottable protein: no-peptide ˜95%
T2 sequence (P02679 27-433 limits assumed): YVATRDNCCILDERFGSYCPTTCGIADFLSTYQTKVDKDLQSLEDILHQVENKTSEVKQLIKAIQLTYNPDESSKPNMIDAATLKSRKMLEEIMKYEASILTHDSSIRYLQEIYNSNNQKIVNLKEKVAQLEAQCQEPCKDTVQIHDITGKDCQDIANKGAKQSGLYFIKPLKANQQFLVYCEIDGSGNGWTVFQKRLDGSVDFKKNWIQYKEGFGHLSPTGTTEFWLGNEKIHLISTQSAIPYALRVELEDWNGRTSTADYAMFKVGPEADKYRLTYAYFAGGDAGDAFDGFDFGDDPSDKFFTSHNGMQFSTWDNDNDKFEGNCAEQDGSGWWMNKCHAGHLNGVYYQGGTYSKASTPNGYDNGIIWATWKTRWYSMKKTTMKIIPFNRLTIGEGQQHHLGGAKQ
T2 sequence (P02675 31-491): T1 sequence (P02675 31-491)
T2 sequence (P02671 20-629 partner limits assumed): T1 sequence (P02671 20-629 partner limits assumed)
Procedure: Polymerization rate (turbidity curves), percent clottable protein, fiber structure (SEM), and viscoelastic properties of fibrin polymerized in the presence or absence of PEGylated-GPRPFPAC (5 kDa linear PEG chain, SED ID NO:53) at a 1:1 molar ratio were evaluated.
The turbidity curves upon initiating thrombin-activated polymerization and the amount of soluble protein remaining in the clot liquor after polymerization (percent clottable protein) were evaluated. All assays were performed with 1 mg/ml fibrinogen, 1 U/ml thrombin, 1 U/mL factor XIIIa, and 5 mM CaCl2; all PEG conjugates were tested at a 1:1 molar ratio.

## GPRP
fibrin
  excess necessary to completely inhibit fibrin assembly: ≥ 100 -fold excess
Fibrinogen [1]
  competition with immobilized GPRP-FnIII9-10-C for binding to fibrinogen: dose-dependent inhibition of fibrinogen binding

## GPRPFPAC-PEG: GPRPFPAC conjugated to 5 kDa linear PEG chain (also: conjugated to 5 kDa linear PEG, site not given here; listed as Homo sapiens)
Fibrinogen [2]; 1 mg/ml fibrinogen, 1 U/ml thrombin, 1 U/mL factor XIIIa
  maximum absorbance turbidity value: lower maximum absorbance turbidity value
Fibrinogen [2]
  percentage of clottable protein: 92%

## GPSPFPAC-PEG: control peptide conjugate, GPSPFPAC (SEQ ID NO:18) with PEG (also: PEG conjugate, site not given here; listed as Homo sapiens) [reference compound]
Fibrinogen [2]
  percentage of clottable protein: did not change
